Assay results: the supplement of paper PMC10724198

Columns and labels:
[1] = test system: Saccharomyces cerevisiae; assay: protein stability index of tFT-peptide fusion in wild type (PSI (0-1 scale)); higher = more stable (slower turnover); settings: genetic background: wild type
[2] = test system: Saccharomyces cerevisiae; assay: protein stability index of tFT-peptide fusion in deletion strain of DOA10 (PSI (0-1 scale)); higher = more stable (slower turnover)
Method: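 MPS profiling in S. cerevisiae of two library types built from selected 12-aa C-degron peptides (IN1, IN2, LN1, LN3, VN2, R1-R5, W1-W3, Atg1 and Rpa12 C-termini): saturation mutagenesis libraries and C-terminal +1 capping libraries (13 aa). Each peptide is fused to the C-terminus of a sfGFP-mCherry timer, after a GGGS linker. Cells are FACS-sorted into 8 mCherry/sfGFP bins and sequenced. PSI runs from 0 (unstable) to 1 (stable), measured once in wild type and in the das1Δ or doa10Δ background.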
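For protein stability index of tFT-peptide fusion in deletion strain of DOA10 in this document: PSI per variant is the weighted mean of its sequencing read distribution over the sorted stability bins, counting only variants with over 10 reads summed across bins.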
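For protein stability index of tFT-peptide fusion in wild type in this document: PSI derived as read-weighted mean over the 8 sorting bins, only variants exceeding 10 total reads kept, mCherry placed adjacent to the peptide and sfGFP distal.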

| Sequence | protein stability index [1] | protein stability index [2] |
| --- | --- | --- |
| ESLRVLLPLYFR | 0.308 | 0.683 |
| GEYMCSVGCWFR | 0.425 | 0.667 |
| GGYMCSVGCWFR | 0.439 | 0.687 |
| GLGMCSVGCWFR | 0.336 | 0.674 |
| GLSMCSVGCWFR | 0.235 | 0.671 |
| GLYECSVGCWFR | 0.526 | 0.678 |
| GLYMCSQGCWFR | 0.463 | 0.691 |
| GLYMCSVFCWFR | 0.222 | 0.365 |
| GLYMCSVGCCFR | 0.611 | 0.651 |
| GLYMCSVGCWFA | 0.35 | 0.371 |
| GLYMCSVGCWFRA | 0.225 | 0.44 |
| GLYMCSVGCWFRC | 0.188 | 0.433 |
| GLYMCSVGCWFRI | 0.11 | 0.455 |
| GLYMCSVGCWRR | 0.62 | 0.662 |
| GLYMCSVGEWFR | 0.663 | 0.686 |
| GLYMCSVGYWFR | 0.213 | 0.603 |
| GLYMCSVHCWFR | 0.371 | 0.453 |
| GLYMCTVGCWFR | 0.219 | 0.527 |
| GLYMGSVGCWFR | 0.303 | 0.704 |
| GLYTCSVGCWFR | 0.392 | 0.682 |
| GLYWCSVGCWFR | 0.246 | 0.646 |
| GPYMCSVGCWFR | 0.413 | 0.667 |
| GTYMCSVGCWFR | 0.344 | 0.675 |
| HITLPMCPLLLR | 0.332 | 0.657 |
| NSLRVLLPLYFR | 0.357 | 0.662 |
| RCLRVLLPLYFR | 0.257 | 0.647 |
| RELRVLLPLYFR | 0.19 | 0.684 |

| Sequence | protein stability index [1] | protein stability index [2] |
| --- | --- | --- |
| RHTRLDAIYFRI | 0.517 | 0.679 |
| RKLRVLLPLYFR | 0.282 | 0.668 |
| RSDRVLLPLYFR | 0.352 | 0.696 |
| RSLCVLLPLYFR | 0.247 | 0.616 |
| RSLHVLLPLYFR | 0.273 | 0.634 |
| RSLIVLLPLYFR | 0.288 | 0.597 |
| RSLRALLPLYFR | 0.491 | 0.684 |
| RSLRQLLPLYFR | 0.466 | 0.68 |
| RSLRTLLPLYFR | 0.455 | 0.686 |
| RSLRVFLPLYFR | 0.127 | 0.693 |
| RSLRVLLALYFR | 0.287 | 0.552 |
| RSLRVLLGLYFR | 0.392 | 0.662 |
| RSLRVLLPCYFR | 0.409 | 0.647 |
| RSLRVLLPKYFR | 0.646 | 0.676 |
| RSLRVLLPLGFR | 0.482 | 0.682 |
| RSLRVLLPLQFR | 0.472 | 0.635 |
| RSLRVLLPLVFR | 0.356 | 0.676 |
| RSLRVLLPLYFG | 0.452 | 0.591 |
| RSLRVLLPLYFRS | 0.3 | 0.644 |
| RSLRVLLPLYMR | 0.326 | 0.696 |
| RSLRVLQPLYFR | 0.285 | 0.685 |
| RSLTVLLPLYFR | 0.24 | 0.662 |
| RVARLDAIYFRI | 0.449 | 0.663 |
| RVFRLDAIYFRI | 0.319 | 0.619 |
| RVTALDAIYFRI | 0.558 | 0.69 |
| RVTRFDAIYFRI | 0.287 | 0.645 |
| RVTRLDAIHFRI | 0.66 | 0.7 |

| Sequence | protein stability index [1] | protein stability index [2] |
| --- | --- | --- |
| RVTRLDAIVFRI | 0.534 | 0.693 |
| RVTRLDAIYCRI | 0.621 | 0.696 |
| RVTRLDAIYFRC | 0.431 | 0.66 |
| RVTRLDAIYFRD | 0.688 | 0.72 |
| RVTRLDAIYFRIC | 0.0626 | 0.103 |
| RVTRLDAIYFRIE | 0.627 | 0.689 |
| RVTRLDAIYFRIM | 0.0601 | 0.129 |
| RVTRLDAIYFRIN | 0.0776 | 0.125 |
| RVTRLDAIYFRM | 0.422 | 0.674 |
| RVTRLDAIYFRR | 0.653 | 0.708 |
| RVTRLDASYFRI | 0.676 | 0.715 |
| RVTRLDCIYFRI | 0.367 | 0.647 |
| RVTRLDGIYFRI | 0.389 | 0.567 |
| RVTRLDHIYFRI | 0.281 | 0.717 |
| RVTRLDSIYFRI | 0.46 | 0.703 |
| RVTRLDVIYFRI | 0.3 | 0.649 |
| RVTRLFAIYFRI | 0.177 | 0.409 |
| RVTRNDAIYFRI | 0.552 | 0.694 |
| RVTRTDAIYFRI | 0.499 | 0.704 |
| RVTRWDAIYFRI | 0.165 | 0.368 |
| RVTRYDAIYFRI | 0.332 | 0.603 |
| SVTRLDAIYFRI | 0.363 | 0.716 |
| VSLRVLLPLYFR | 0.283 | 0.611 |
| WSLRVLLPLYFR | 0.269 | 0.636 |
| WVTRLDAIYFRI | 0.161 | 0.62 |
